Assays:
AncSZ = test: phosphorylation enrichment, bacterial display (enrichment ratio); higher = better substrate or ligand; peptides without Tyr show the background
EPHB1 = EPHB1 (UniProt P54762); test: as above
EPHB2 = EPHB2 (UniProt P29323); test: as above
FGFR1 = FGFR1 (UniProt P11362); test: as above
FGFR3 = FGFR3 (UniProt P22607); test: as above
Fer (mouse) = test: as above
Fes = Fes (UniProt P07332); test: as above
Fyn = Fyn (UniProt P06241); test: as above
Hck = Hck (UniProt P08631); test: as above
Jak2 = Jak2 (UniProt O60674); test: as above
Sequence of Jak2 (O60674 whole entry, looked up): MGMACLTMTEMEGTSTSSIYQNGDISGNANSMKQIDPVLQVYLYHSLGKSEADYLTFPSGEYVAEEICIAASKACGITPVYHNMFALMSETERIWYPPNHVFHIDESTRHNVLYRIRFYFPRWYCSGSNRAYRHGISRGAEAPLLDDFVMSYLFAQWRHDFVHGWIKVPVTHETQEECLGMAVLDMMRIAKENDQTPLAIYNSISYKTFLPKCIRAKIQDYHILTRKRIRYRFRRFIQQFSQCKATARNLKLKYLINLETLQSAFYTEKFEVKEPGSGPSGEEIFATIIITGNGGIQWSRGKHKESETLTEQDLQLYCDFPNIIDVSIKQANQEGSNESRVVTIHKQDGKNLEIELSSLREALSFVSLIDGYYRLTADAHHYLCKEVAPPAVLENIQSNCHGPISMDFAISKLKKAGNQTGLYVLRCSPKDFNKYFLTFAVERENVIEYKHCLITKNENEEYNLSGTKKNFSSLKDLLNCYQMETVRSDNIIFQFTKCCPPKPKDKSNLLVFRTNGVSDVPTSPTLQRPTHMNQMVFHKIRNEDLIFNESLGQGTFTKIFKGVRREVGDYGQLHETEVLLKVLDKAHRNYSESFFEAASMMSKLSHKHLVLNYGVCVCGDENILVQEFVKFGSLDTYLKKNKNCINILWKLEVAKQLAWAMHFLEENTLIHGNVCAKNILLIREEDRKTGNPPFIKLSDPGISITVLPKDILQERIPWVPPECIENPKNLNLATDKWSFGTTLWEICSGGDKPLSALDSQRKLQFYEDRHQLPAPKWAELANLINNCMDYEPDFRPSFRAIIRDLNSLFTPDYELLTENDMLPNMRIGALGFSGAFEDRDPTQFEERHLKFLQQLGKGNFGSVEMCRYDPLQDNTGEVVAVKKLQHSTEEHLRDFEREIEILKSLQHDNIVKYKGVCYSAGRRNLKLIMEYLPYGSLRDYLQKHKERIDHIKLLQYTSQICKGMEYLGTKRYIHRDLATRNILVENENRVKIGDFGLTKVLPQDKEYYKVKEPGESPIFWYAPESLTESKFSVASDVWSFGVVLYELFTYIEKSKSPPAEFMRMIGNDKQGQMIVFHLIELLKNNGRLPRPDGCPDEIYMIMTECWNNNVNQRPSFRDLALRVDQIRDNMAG

MERTK = MERTK (UniProt Q12866); test: as above
Sequence of MERTK (Q12866 whole entry, looked up): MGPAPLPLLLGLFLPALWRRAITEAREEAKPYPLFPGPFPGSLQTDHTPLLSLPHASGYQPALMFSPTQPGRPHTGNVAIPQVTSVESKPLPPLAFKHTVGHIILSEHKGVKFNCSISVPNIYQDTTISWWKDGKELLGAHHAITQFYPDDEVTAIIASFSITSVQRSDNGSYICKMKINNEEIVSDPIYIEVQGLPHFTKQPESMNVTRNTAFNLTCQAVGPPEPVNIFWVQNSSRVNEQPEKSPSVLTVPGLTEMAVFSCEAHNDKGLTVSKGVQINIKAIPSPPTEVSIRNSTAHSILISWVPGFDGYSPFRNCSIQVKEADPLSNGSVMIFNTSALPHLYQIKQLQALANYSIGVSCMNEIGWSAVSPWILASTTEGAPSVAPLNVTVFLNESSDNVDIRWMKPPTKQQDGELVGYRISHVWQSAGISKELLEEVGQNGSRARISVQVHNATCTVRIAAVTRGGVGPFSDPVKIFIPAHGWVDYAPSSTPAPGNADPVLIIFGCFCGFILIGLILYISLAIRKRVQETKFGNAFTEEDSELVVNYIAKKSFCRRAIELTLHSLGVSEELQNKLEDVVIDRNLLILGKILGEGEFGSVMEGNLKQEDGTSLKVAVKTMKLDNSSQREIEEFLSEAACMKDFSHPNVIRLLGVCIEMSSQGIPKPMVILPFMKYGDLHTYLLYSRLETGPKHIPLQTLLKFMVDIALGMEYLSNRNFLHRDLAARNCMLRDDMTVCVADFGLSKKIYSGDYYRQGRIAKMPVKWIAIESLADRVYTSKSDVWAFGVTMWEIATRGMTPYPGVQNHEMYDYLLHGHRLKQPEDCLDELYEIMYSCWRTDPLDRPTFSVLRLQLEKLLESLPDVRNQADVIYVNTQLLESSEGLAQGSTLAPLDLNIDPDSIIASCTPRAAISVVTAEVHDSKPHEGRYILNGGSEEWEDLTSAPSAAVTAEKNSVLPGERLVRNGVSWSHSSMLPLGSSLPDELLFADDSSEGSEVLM

c-Abl (mouse) = test: as above
c-Src = test: as above
Grb2 SH2 = Grb2 SH2 (UniProt P62993); test: SH2 binding enrichment of the phosphorylated peptide, bacterial display (enrichment ratio); higher = better substrate or ligand; peptides without Tyr show the background
Sequence of Grb2 SH2 (P62993 whole entry, looked up): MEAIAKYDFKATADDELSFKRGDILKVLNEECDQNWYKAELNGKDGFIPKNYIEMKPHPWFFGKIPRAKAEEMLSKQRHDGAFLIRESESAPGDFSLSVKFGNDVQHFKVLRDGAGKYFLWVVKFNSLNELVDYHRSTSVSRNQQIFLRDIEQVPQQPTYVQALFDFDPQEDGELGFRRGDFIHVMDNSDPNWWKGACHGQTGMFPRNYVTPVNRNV

SHP2-C SH2 = test: as above
c-Src SH2 = test: as above
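For SH2 binding enrichment of the phosphorylated peptide, bacterial display in this document: peptide library displayed on the E. coli surface as eCPX fusions, selected cells deep-sequenced, score is each peptide's frequency after selection divided by its frequency in the input.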
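For phosphorylation enrichment, bacterial display in this document: 11-residue human phosphosite peptides and single-mutation variants displayed on the E. coli surface, counted by deep sequencing, each peptide's frequency after selection divided by its frequency in the unselected input library; frequency after pTyr selection over input frequency; kinase dosed for 20-30% of maximal phosphorylation in three min.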

Sequence of Fes (P07332 whole entry, looked up): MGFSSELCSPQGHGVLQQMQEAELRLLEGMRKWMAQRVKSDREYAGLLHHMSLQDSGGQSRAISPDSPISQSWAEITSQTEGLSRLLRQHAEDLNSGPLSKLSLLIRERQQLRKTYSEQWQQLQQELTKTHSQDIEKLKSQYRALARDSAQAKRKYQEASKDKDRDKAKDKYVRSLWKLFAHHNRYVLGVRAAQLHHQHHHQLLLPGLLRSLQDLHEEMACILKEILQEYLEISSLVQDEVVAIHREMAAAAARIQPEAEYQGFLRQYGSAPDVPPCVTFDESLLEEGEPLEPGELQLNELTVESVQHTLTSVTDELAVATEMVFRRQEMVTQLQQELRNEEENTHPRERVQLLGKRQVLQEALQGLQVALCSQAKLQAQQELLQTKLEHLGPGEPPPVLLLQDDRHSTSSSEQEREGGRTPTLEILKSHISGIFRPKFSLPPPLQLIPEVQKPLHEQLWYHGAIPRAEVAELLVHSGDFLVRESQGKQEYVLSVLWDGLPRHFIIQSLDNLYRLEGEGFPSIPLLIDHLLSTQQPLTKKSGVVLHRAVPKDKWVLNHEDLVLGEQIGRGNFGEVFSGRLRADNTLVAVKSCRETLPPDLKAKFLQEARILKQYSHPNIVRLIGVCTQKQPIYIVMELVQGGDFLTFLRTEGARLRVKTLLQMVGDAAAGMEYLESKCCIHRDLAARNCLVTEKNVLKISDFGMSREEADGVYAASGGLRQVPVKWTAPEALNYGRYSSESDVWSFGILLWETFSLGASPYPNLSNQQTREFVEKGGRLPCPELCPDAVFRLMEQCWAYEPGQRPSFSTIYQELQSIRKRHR
Sequence of EPHB1 (P54762 whole entry, looked up): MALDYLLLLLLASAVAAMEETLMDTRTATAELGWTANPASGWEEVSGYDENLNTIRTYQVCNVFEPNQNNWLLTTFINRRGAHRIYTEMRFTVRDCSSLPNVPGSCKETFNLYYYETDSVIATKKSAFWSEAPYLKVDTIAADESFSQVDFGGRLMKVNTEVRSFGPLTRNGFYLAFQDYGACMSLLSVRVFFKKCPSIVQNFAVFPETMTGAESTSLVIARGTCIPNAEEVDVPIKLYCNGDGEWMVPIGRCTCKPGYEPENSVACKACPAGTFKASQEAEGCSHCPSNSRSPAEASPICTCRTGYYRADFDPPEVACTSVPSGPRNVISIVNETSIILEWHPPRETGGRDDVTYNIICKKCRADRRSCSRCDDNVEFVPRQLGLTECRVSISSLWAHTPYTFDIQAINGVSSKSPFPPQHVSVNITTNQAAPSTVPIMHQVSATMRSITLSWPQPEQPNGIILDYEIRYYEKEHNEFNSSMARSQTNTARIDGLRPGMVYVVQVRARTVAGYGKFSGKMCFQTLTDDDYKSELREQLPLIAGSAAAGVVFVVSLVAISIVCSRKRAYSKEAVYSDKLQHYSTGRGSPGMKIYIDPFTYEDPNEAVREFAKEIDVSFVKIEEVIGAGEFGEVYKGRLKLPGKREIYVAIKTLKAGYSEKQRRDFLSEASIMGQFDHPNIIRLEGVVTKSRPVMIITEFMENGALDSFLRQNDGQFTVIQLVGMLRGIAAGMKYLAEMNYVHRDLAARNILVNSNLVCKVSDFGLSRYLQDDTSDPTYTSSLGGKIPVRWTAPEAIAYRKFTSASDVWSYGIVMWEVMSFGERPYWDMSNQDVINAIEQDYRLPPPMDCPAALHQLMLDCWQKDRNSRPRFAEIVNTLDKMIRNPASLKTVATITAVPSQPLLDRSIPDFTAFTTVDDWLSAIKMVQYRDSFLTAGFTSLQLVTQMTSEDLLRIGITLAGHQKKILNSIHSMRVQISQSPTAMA
Sequence of FGFR3 (P22607 whole entry, looked up): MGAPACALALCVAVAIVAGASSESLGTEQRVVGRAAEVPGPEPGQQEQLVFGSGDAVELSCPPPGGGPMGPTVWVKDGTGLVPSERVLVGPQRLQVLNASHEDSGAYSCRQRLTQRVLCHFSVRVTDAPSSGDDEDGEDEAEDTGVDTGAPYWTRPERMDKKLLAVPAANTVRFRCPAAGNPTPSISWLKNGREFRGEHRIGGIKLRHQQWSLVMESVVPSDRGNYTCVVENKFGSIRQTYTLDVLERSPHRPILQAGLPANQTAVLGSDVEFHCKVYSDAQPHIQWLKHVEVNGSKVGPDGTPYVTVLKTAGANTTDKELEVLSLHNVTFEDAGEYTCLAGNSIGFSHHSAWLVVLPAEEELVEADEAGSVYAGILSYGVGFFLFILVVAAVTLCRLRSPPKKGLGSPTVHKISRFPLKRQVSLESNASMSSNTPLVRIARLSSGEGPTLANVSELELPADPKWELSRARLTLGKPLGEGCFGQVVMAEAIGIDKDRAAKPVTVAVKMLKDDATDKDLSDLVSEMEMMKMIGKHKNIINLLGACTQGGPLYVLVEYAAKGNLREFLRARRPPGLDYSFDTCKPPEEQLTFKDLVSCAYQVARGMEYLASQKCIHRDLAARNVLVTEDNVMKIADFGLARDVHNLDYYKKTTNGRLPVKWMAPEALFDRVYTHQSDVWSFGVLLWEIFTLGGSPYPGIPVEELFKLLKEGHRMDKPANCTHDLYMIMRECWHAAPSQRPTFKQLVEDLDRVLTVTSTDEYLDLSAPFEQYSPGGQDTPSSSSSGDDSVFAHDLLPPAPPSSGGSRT

Sequence	phosphorylation enrichment (AncSZ)	phosphorylation enrichment (EPHB1)	phosphorylation enrichment (EPHB2)	phosphorylation enrichment (FGFR1)	phosphorylation enrichment (FGFR3)	phosphorylation enrichment (Fer (mouse))	phosphorylation enrichment (Fes)	phosphorylation enrichment (Fyn)	phosphorylation enrichment (Hck)	phosphorylation enrichment (Jak2)	phosphorylation enrichment (MERTK)	phosphorylation enrichment (c-Abl (mouse))	phosphorylation enrichment (c-Src)	SH2 binding enrichment (Grb2 SH2)	SH2 binding enrichment (SHP2-C SH2)	SH2 binding enrichment (c-Src SH2)
SQQTFYRVSNM [ABCD1_Y181_YF]	0.564	0.31	0.507	0.433	0.575	0.39	0.741	0.409	0.513	0.546	0.388	0.492	0.408	0.82	0.762	0.525
EKFVPYFDLFM [IPO5_Y530_YF]	1.33	1.06	0.652	1.74	1.71	0.608	1.35	0.57	0.581	1.32	0.444	0.858	0.596	1.05	0.827	1.11
FKDVTYLTEEK [UBE3A_Y127]	1.15	0.618	0.691	0.524	0.683	0.423	1.09	0.747	0.53	0.959	0.51	0.726	0.511	1.11	0.777	0.429
GVTLLYYGRDN [ADGRD1_Y85_Y89D]	0.923	0.605	0.629	0.543	0.685	0.408	1.01	0.545	1.01	1.39	0.841	0.894	0.816	1.13	1.04	0.807
VKPENYRRQDI [VHL_Y175_L178Q]	0.475	0.274	0.367	0.343	0.4	0.304	0.504	0.344	0.309	0.469	0.379	0.465	0.365	0.862	0.607	0.494
FFTEEYVRDHP [DOCK2_Y1555]	0.989	0.486	0.461	0.481	0.766	0.452	0.915	0.44	0.485	1.19	0.381	0.657	0.457	0.944	0.916	0.553
SLLTDDSPQLQ [OTC_Y345_Y345D]	1.14	0.928	0.548	0.491	0.764	0.444	1.29	0.407	0.481	1.22	0.538	0.923	0.453	0.746	0.49	0.413
KVASVYEALGF [NT5C_Y65_P68L]	0.88	8.22	4.25	0.607	0.574	4.62	0.989	10.3	8.84	0.595	7.59	0.697	6.25	0.787	0.667	0.613
APTSGYQEFIH [IL4R_Y575_V579I]	0.717	0.424	0.582	0.572	0.679	0.416	0.82	0.504	0.461	0.684	0.429	0.527	0.442	0.878	0.5	3.98
SVMAEYGLYRA [VSX2_Y219_G223R]	0.951	0.701	1.28	0.537	0.578	0.512	0.862	7.16	6.46	0.569	0.552	0.945	6.41	0.734	0.702	0.447
IVFVIYDEVVK [SLC25A1_Y297]	1.16	1.9	2.01	0.53	0.863	0.708	1.19	1.03	1.44	1.26	0.576	0.888	0.855	1.5	1.61	1.27
TNFRFYLRSLE [MTM1_Y71_L70F_YF]	1.3	0.66	0.611	0.548	0.964	0.558	1.64	0.397	0.633	1.57	0.381	0.931	0.455	0.772	0.89	0.536
GPIFRYDLGGA [CYP11B1_Y81]	0.777	0.478	0.431	0.432	0.433	0.466	0.822	0.45	0.357	0.568	0.345	0.497	0.394	0.97	0.859	0.518
GTATAYLCRVK [ALPL_Y117_G120R]	0.678	0.48	0.506	0.471	0.514	0.517	0.804	0.404	0.389	0.578	0.363	0.595	0.399	1.07	0.771	0.525
CRWKRYQRSHD [GDPD5_Y30]	0.675	0.458	0.516	0.481	0.508	0.469	0.563	0.472	0.527	0.573	0.487	0.482	0.579	0.679	0.604	0.483
KQCSDYARELE [MYH3_Y1140_R1137C]	1.23	0.597	0.605	0.654	0.769	0.578	1.26	0.552	0.571	1.19	0.557	0.929	0.514	1.02	0.704	0.619
RMSRSYPTGLA [ADM_Y52_S50R]	0.497	0.382	0.349	0.36	0.459	0.319	0.594	0.381	0.39	0.42	0.454	0.594	0.377	0.721	0.548	0.425

Sequence	phosphorylation enrichment (AncSZ)	phosphorylation enrichment (EPHB1)	phosphorylation enrichment (EPHB2)	phosphorylation enrichment (FGFR1)	phosphorylation enrichment (FGFR3)	phosphorylation enrichment (Fer (mouse))	phosphorylation enrichment (Fes)	phosphorylation enrichment (Fyn)	phosphorylation enrichment (Hck)	phosphorylation enrichment (Jak2)	phosphorylation enrichment (MERTK)	phosphorylation enrichment (c-Abl (mouse))	phosphorylation enrichment (c-Src)	SH2 binding enrichment (Grb2 SH2)	SH2 binding enrichment (SHP2-C SH2)	SH2 binding enrichment (c-Src SH2)
DAPVVYLGSFR [PRAG1_Y132]	0.773	0.402	0.449	0.418	0.52	0.448	0.906	0.436	0.575	0.73	0.476	0.743	0.449	1.08	5.6	0.53
GVLKEYGGKVL [CPS1_Y529_V531G]	0.588	0.393	0.343	0.361	0.415	0.354	0.686	0.364	0.403	0.537	0.374	0.546	0.396	0.963	0.559	0.29
LRRQDYQEILD [SLC35G2_Y403_K400R]	1.35	0.838	0.898	0.727	0.783	0.509	1.58	0.492	0.352	1.06	0.622	0.621	0.376	0.78	0.767	3.37
ACQSLYGGFVE [MVD_Y164_R161Q]	0.949	0.719	1.53	0.567	0.665	0.744	0.945	11.1	8.54	0.775	1.14	0.7	7.59	0.902	0.735	0.628
DRVALYIAREG [AACS_Y117]	0.957	0.671	0.534	0.519	0.717	0.484	1.14	0.468	0.569	1.02	0.395	0.731	0.432	0.896	0.928	0.487
DRTVNYVLKCR [PLEKHG4_Y1068]	1.15	0.668	0.67	0.517	0.778	0.566	1.17	0.515	0.688	0.898	0.357	0.764	0.43	0.728	0.61	0.83
FYRKVYHLASV [RBL1_Y796]	0.853	0.447	0.566	0.555	0.673	0.779	0.745	0.444	0.422	0.667	0.39	0.416	0.296	1.15	1.31	0.715
GDEEDYYEIPG [EGFR_opt_no-pY_2015]	3.2	0.919	1.26	6.05	5.79	2.82	1.64	1.19	0.963	1.34	0.811	0.968	1.32	0.87	0.67	1.84
PYSNPYENSLI [EPOR_Y489]	1.17	0.781	0.714	0.806	1.14	2.63	1.16	0.906	0.679	1.05	0.912	0.762	1.15	3.58	0.818	5.44
IGNGFYFHVFS [MYBPC3_Y1136_R1138H_YF]	1.06	0.639	0.643	0.472	0.757	0.449	1.31	0.4	0.423	1.28	0.419	1.04	0.381	0.982	0.7	0.484
AVARMYGVLPW [PLP1_Y207_D203V]	0.689	0.411	0.644	0.524	0.536	0.505	0.866	2.46	3.59	0.666	0.491	0.656	2.19	0.952	0.433	0.524
EQQDMYRLKVL [ABCC6_Y372_N370D]	0.774	0.354	0.482	0.451	0.581	0.473	0.773	0.387	0.427	0.638	0.376	0.453	0.415	0.852	0.63	0.58
MAHDRYAAICS [OR8H2_Y123]	0.547	0.41	0.444	0.494	0.439	0.372	0.646	0.437	0.48	0.44	0.424	0.396	0.424	0.9	1.91	5.4
FVIISYVLIIR [OR1D2_Y218]	0.994	0.561	0.325	0.672	0.727	0.566	0.733	0.517	0.508	0.503	0.527	0.457	0.517	4.69	4.04	1.89
RHPLEYLRQFP [NARS2_Y138_YF]	0.605	0.372	0.494	0.369	0.365	0.275	0.612	0.342	1.38	0.66	0.33	0.554	0.409	1.49	1.28	0.984
DNEAIYDICRR [TUBA4A_Y210]	2.79	4.07	4.97	0.671	0.843	10.7	1.45	8.6	7.21	1.03	5.98	16.1	5.7	0.613	0.546	0.516

Source: the supplement of paper PMC10065799, “High-throughput profiling of sequence recognition by tyrosine kinases and SH2 domains using bacterial peptide display” (eLife, 2023)
